Test system: MS2 coat protein
Assay: apparent KD of MS2 coat protein; designed switch direction (-1 OFF switch, 1 ON switch): 1; higher = weaker reporter binding
Outline: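 The buffer was Tris-HCl pH 7.5 with KCl, MgCl2, BSA, DTT, tRNA and Tween-20. In it, SNAP-549-labelled MS2 coat protein was titrated in doubling steps from 0.7 or 1.5 nM to 3 µM over chip-bound RNA switches transcribed by stalled E. coli RNA polymerase on Illumina chips. Apparent KD is the per-design median over clusters of curve fits to normalised fluorescence.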

[1] = input ligand: microRNA oligo, concentration not stated
[2] = Eterna round: R95, input ligand: FMN 200 uM
[3] = Eterna round: R95, input ligand: microRNA oligo, concentration not stated
[4] = Eterna round: R95, input ligand: none

What does the source list for “GUUAGGAAUCUAGCAAACAUGAGGAUCACCCAUGUAAGUGGGAAGGAUAUGGUACAGAAACUGUACCAGAAGGUCUUAUUGAUU [Omei SS(NG) 3 AV5] (Eterna round: R96, puzzle: Same State NG 3)”?
apparent KD of MS2 coat protein (input ligand: FMN 200 uM): 81.7 nM; apparent KD of MS2 coat protein [1]: 247 nM; apparent KD of MS2 coat protein (input ligand: none): 371 nM

What does the source list for “AGAUAACAUGAGGAUCACCCAUGUCAACUAAGUCGAGGAUAUGGGCAUAUUAUAUUAGAACCAGAAGGCGAAUAGA [Mat - Same State 1 - Mod of UCT - D45] (puzzle: Same State 1)”?
apparent KD of MS2 coat protein [2]: 12.6 nM; apparent KD of MS2 coat protein [3]: 4.03 nM; apparent KD of MS2 coat protein [4]: 27.9 nM

Which results are given for “AUAAAACAUGAGGAUCACCCAUGUCAACAAAGUCGAGGAUAUGGGCAAUUAAAAUAAGAACCAGAAGGCGAAUAAU [salish99_ss1_r3_025] (Eterna round: R96, puzzle: Same State 1)”?
apparent KD of MS2 coat protein (input ligand: FMN 200 uM): 35.7 nM; apparent KD of MS2 coat protein [1]: 214 nM; apparent KD of MS2 coat protein (input ligand: none): 250 nM

“AGGUACAACGGAGGAUAUAAUAGUCUAUAGACGUUAGAAGGCCGGGCCUUCACAUGAGGAUCACCCAUGUCUCUGGAGGCGCCU [Eternabot solution 11] (Eterna round: R96, puzzle: Same State NG 1)” was tested. Which “apparent KD of MS2 coat protein” value [1] did it give?
The value was 16.8 nM.

How did the “apparent KD of MS2 coat protein” value [2] turn out when “GCAGGACAUGAGGAUCACCCAUGUUCCAAAUAUUGAGGAUAUGGAUACGGUAUAUCCGAACCAGAAGGCAACCUGC [SS1 Teenbexe 21] (puzzle: Same State 1)” was run?
Its value is 25.3 nM.

What about the “apparent KD of MS2 coat protein” value [3] of the same sequence?
The value was 22.1 nM.

And the “apparent KD of MS2 coat protein” value [4]?
Its value is 23.3 nM.

With “GAGGGAUGAGCGUAGGAUAUAGGAGAAGUGACAUGAGGAUCACCCAUGUGGUAUGAGGGAUGAUUCUAGAAGGACGCGGUAGGAG [JR_SS2_Sub062] (puzzle: Same State 2)” as the sequence, how does the “apparent KD of MS2 coat protein” value [2] read?
Its value is 154 nM.

And the “apparent KD of MS2 coat protein” value [3]?
Its value is 494 nM.

And the “apparent KD of MS2 coat protein” value [4]?
The value was 116 nM.

For “AAGUAGUGGUCAGGAUAUCAAAUCAUUGCAUCACGAUACAUGAGGAUCACCCAUGUCCCAAAAUAUGAGAAGGGACUCACACGG [Eternabot solution 45] (Eterna round: R96, puzzle: Same State NG 2)”, which “apparent KD of MS2 coat protein” value (input ligand: FMN 200 uM) is on record?
Its value is 279 nM.

What about the “apparent KD of MS2 coat protein” value [1] of the same sequence?
The value was 90.1 nM.

What about the “apparent KD of MS2 coat protein” value (input ligand: none) of the same sequence?
Its value is 186 nM.

Which “apparent KD of MS2 coat protein” value (input ligand: FMN 200 uM) does the source give for “CGGGACAUGAGGAUCACCCAUGUGCCGAAAGGCACAAGAACGCAGGAUAUAGGGCAAAGACAGCCCUAGAAGGGUGACCUUGUG [Tiesralabe] (Eterna round: R96, puzzle: Same State NG 3)” here?
Its value is 197 nM.

And the “apparent KD of MS2 coat protein” value [1]?
Its value is 21.3 nM.

What about the “apparent KD of MS2 coat protein” value (input ligand: none) of the same sequence?
The value was 117 nM.

What does the source list for “GGUAGGUUACUACCAAACAUGAGGAUCACCCAUGUAAAUGGGAAGGAUAUGGUACCUAUUUGGUACCAGAAGGUCUAAAUAAUU [Mat - Same State NG 3 - JL Mod - D94] (Eterna round: R96, puzzle: Same State NG 3)”?
apparent KD of MS2 coat protein (input ligand: FMN 200 uM): 392 nM; apparent KD of MS2 coat protein [1]: 821 nM; apparent KD of MS2 coat protein (input ligand: none): 1020 nM

“UCUUGGUUUUUGCUCGUUUUUUGUGUUGAACAUGAGGAUCACCCAUGUAUUGUACGGUCCGGUUUAGUAGUGGUCCA [JMF 44] (Eterna round: R96, puzzle: Sensor for hsa-mir-208a)” was tested. Which “apparent KD of MS2 coat protein” value (input ligand: FMN 200 uM) did it give?
Its value is 181 nM.

What about the “apparent KD of MS2 coat protein” value [1] of the same sequence?
Its value is 81.8 nM.

What about the “apparent KD of MS2 coat protein” value (input ligand: none) of the same sequence?
Its value is 173 nM.

Which “apparent KD of MS2 coat protein” value [1] does the source give for “GCUACCAAAGAAGCCAACAUGAGGAUCACCCAUGUAUGUUGGUAGGAUAUCGUAUGCAAAGCAUACGAGAAGGGCUAAGGUAGC [Mat - Same State NG 3 - JL Mod - D78] (Eterna round: R96, puzzle: Same State NG 3)” here?
The value was 86.9 nM.

Which “apparent KD of MS2 coat protein” value (input ligand: FMN 200 uM) does the source give for “AUUGCUUACGCAGGAUAUGAUGCGGAAACUGCGUCAGAAGGGUGAAAAGAAUCGUUGCAAGAAGACAUGAGGAUCACCCAUGUC [SameState NG1 #95] (Eterna round: R96, puzzle: Same State NG 1)” here?
The value was 20 nM.

And the “apparent KD of MS2 coat protein” value [1]?
The value was 23 nM.

What about the “apparent KD of MS2 coat protein” value (input ligand: none) of the same sequence?
Its value is 30.5 nM.

How did the “apparent KD of MS2 coat protein” value [2] turn out when “AUAAGGCAAGCUUUUUUCUCGUAGUAUAAACAUGAGGAUCACCCAUGUGCCCACCCUGGAUCUUUGGAUCGCAGAAC [Vetera] (puzzle: Sensor for hsa-mir-208a)” was run?
Its value is 26.8 nM.

And the “apparent KD of MS2 coat protein” value [3]?
Its value is 16.5 nM.

What about the “apparent KD of MS2 coat protein” value [4] of the same sequence?
The value was 26.3 nM.

Which “apparent KD of MS2 coat protein” value [2] does the source give for “AGUCCAGCCUGAGCUGGACAAAAGCAUGUACAUGAGGAUCACCCAUGUUCAUGUACAAGCUUUUUGCUCGUCUUAAU [salish99_208a_r3_027] (puzzle: Sensor for hsa-mir-208a)” here?
Its value is 480 nM.

What about the “apparent KD of MS2 coat protein” value [3] of the same sequence?
Its value is 14 nM.

And the “apparent KD of MS2 coat protein” value [4]?
Its value is 643 nM.

For “GGUCCAGCCUGAGCUGGACAAAAGCAUGUACAUGAGGAUCACCCAUGUCAUGUACAAGCUUUUUGCUCGUCUUAAGA [Mat - hsa-mir-208a - 88] (Eterna round: R96, puzzle: Sensor for hsa-mir-208a)”, which “apparent KD of MS2 coat protein” value (input ligand: FMN 200 uM) is on record?
Its value is 752 nM.

And the “apparent KD of MS2 coat protein” value [1]?
The value was 15.4 nM.

And the “apparent KD of MS2 coat protein” value (input ligand: none)?
Its value is 712 nM.

With “GCUAGGAUAUGACGAGGAUCACCCGUUAGAAGGAGCGAAAGCUAGGAUAUGACGAGGAUCACCCGUUAGAAGGAGCUGUCCUCU [pwkr ssNG3 DX 2xF5 +2xFMN.11] (Eterna round: R96, puzzle: Same State NG 3)” as the sequence, how does the “apparent KD of MS2 coat protein” value (input ligand: FMN 200 uM) read?
The value was 200 nM.

What about the “apparent KD of MS2 coat protein” value [1] of the same sequence?
Its value is 80.1 nM.

And the “apparent KD of MS2 coat protein” value (input ligand: none)?
Its value is 111 nM.

For “ACACGGAUACAUGAGGAUCACCCAUGUACAUGGGUUAUUACAAGCUUUUUGCUUGGGAUUAUUGGGAUUAUUAUUAA [Default title] (puzzle: Sensor for hsa-mir-208a version 2)”, which “apparent KD of MS2 coat protein” value [2] is on record?
The value was 122 nM.

What about the “apparent KD of MS2 coat protein” value [3] of the same sequence?
The value was 156 nM.

And the “apparent KD of MS2 coat protein” value [4]?
The value was 153 nM.

How did the “apparent KD of MS2 coat protein” value (input ligand: FMN 200 uM) turn out when “GCUCGACGUAUUGUCUACAUGAGGAUCACCCAUGUAGGUGCGGAGGAUAUCUACGUGUUUCAUGUAGAGAAGGUCGUGUCGAGC [SameState NG3 #90] (Eterna round: R96, puzzle: Same State NG 3)” was run?
The value was 56 nM.

And the “apparent KD of MS2 coat protein” value [1]?
The value was 155 nM.

What about the “apparent KD of MS2 coat protein” value (input ligand: none) of the same sequence?
Its value is 177 nM.

How did the “apparent KD of MS2 coat protein” value [2] turn out when “GAGUAUGAACUACAGGAUAUAUAGCAGAUGACAUGAGGAUCACCCAUGUAAGAGAAAGGAGGGAAAUAGAAGGGUAUGGGAGGUG [JR_SS2_Sub036] (puzzle: Same State 2)” was run?
Its value is 37.6 nM.

And the “apparent KD of MS2 coat protein” value [3]?
Its value is 33.9 nM.

And the “apparent KD of MS2 coat protein” value [4]?
Its value is 31.4 nM.

How did the “apparent KD of MS2 coat protein” value (input ligand: FMN 200 uM) turn out when “UCUCUUAUCGUAGGAUAUGUAGGAUAUGUACAUGAGGAUCACCCAUGUCUACCAGAGACAGAAGGACAGAAGGACGAACCACUC [pwkr ssNG2 2FMN 1F5s.4] (Eterna round: R96, puzzle: Same State NG 2)” was run?
The value was 43.4 nM.

And the “apparent KD of MS2 coat protein” value [1]?
The value was 51.7 nM.

And the “apparent KD of MS2 coat protein” value (input ligand: none)?
Its value is 80.7 nM.

“ACAUGAGAGUUAGGAUAUCUUGUACCUACAUGUGACAUGAGGAUCACCCAUGUGGUAAGUAUGAGGGAGAAGGAACAGAUAUGU [Equivalence 43 - Jieux - Same State NG 2] (Eterna round: R96, puzzle: Same State NG 2)” was tested. Which “apparent KD of MS2 coat protein” value [1] did it give?
Its value is 27.3 nM.

What does the source list for “UUGAGGAAUUAAGGAUAUUGAGUACAUAUGUUUAACAUGAGGAUCACCCAUGUGGGUUGCGGUAUCGAGAAGGUAAAUUACUAG [JL SSNG2 1.46] (Eterna round: R96, puzzle: Same State NG 2)”?
apparent KD of MS2 coat protein (input ligand: FMN 200 uM): 141 nM; apparent KD of MS2 coat protein [1]: 83.8 nM; apparent KD of MS2 coat protein (input ligand: none): 168 nM

Which “apparent KD of MS2 coat protein” value (input ligand: FMN 200 uM) does the source give for “UUGAAGAAUUAAGGAUAUCGAGUCGUCAAAUUAAACAUGAGGAUCACCCAUGUGGGUUGUGGUAUCGAGAAGGUAAAUUACUAA [JR_SSNG2_Sub100] (Eterna round: R96, puzzle: Same State NG 2)” here?
The value was 57.1 nM.

And the “apparent KD of MS2 coat protein” value [1]?
The value was 66.4 nM.

What about the “apparent KD of MS2 coat protein” value (input ligand: none) of the same sequence?
The value was 84.7 nM.

What does the source list for “AUUUUUAAUGCAGGAUAUGAUCAACAUGAGGAUCACCCAUGUGGUGUUGUGAGUAAGGAGAGUGAUCAGAAGGGCAUCUUUUCA [SS-NG2-LRO03] (Eterna round: R96, puzzle: Same State NG 2)”?
apparent KD of MS2 coat protein (input ligand: FMN 200 uM): 1310 nM; apparent KD of MS2 coat protein [1]: 372 nM; apparent KD of MS2 coat protein (input ligand: none): 758 nM

What does the source list for “UGGUACAUGGGAGGAUAUGGGCAUGAGACAUGAGGAUCACCCAUGUAUUAUAAGCCGAAAGGCAUCUAGAAGGCCCAUGUACCU [JL SSNG1 3.84] (Eterna round: R96, puzzle: Same State NG 2)”?
apparent KD of MS2 coat protein (input ligand: FMN 200 uM): 14.2 nM; apparent KD of MS2 coat protein [1]: 68.3 nM; apparent KD of MS2 coat protein (input ligand: none): 92.4 nM

With “UGUUGUAUUACAGGAUAUCUAUUAGUUUAAUUUAGAGAAGGGUAUUCACAUGAGGAUCACCCAUGUAUAUACGAGGAAGUUGUG [JMF's solution 93] (Eterna round: R96, puzzle: Same State NG 1)” as the sequence, how does the “apparent KD of MS2 coat protein” value [1] read?
The value was 39.5 nM.

With “UAAGUAUGUUGAGGAUAUUAUGUUUGGUGAGAUGACAUGAGGAUCACCCAUGUGUUAUCAGUUCUUAAGAAGGCAACAUACUUA [JR_SSNG2_Sub092] (Eterna round: R96, puzzle: Same State NG 2)” as the sequence, how does the “apparent KD of MS2 coat protein” value [1] read?
Its value is 20 nM.

What does the source list for “CGAACACGUUGAGGAUAUGCAGAGGAUCACCCUGUAGAAGGCAACAGAUGAGGAUAUGCAGAGGAUCACCCUGUAGAAGGCAAC [pwkr ssNG DX.5] (Eterna round: R96, puzzle: Same State NG 1)”?
apparent KD of MS2 coat protein (input ligand: FMN 200 uM): 54.3 nM; apparent KD of MS2 coat protein [1]: 68.6 nM; apparent KD of MS2 coat protein (input ligand: none): 116 nM
